According to patent US20220073609A1 (DENALI THERAPEUTICS, published 2022):
Residue numbers refer to the chain shown, from its start. No end group written: not given here.

B1: CL0020123 (antibody, V domains shown)
VH: EVQLQQSGAELVRSGASVKLSCTASGFSIEDFYIHWVKQRPEQGLEWIGWIDPENGDSKYAPKFQGKATMTADTSSNTAYLHLSSLTSEDTAVYYCHADHGNYGSTMDYWGQGTSVTVSS
VL: DIQMNQSPSSLSASLGDTVTITCHASQHINVWLSWYQQKPGDHPKLLIYKASNLHTGVPSRFSGSGSGTGFTLTISSLQPEDIATYYCQQGQTYPRTFGGGTKLEIK
notes: also called Clone CL0020123
B2: CL0020188 (antibody, V domains shown)
VH: EVKLLDSGGGLVQAGGSLRLSCAGSGFTFTDFYMSWIRQPPGKAPEWLGVIRNKANGYTAGYNPSVKGRFTISRDNTQNILYLQMNTLRAEDTAIYYCARLTYGFDYWGQGVMVTVSS
VL: DIVMTQGALPNPVPSGESASITCQSSKSLLHSNGKTYLNWYLQRPGQSPQLLIYWMSTRASGVSDRFSGSGSGTDFTLKISSVEAEDVGVYYCQQFLEYPFTFGSGTKLEIK
notes: also called Clone CL0020188
B3: CL0020188-7 (antibody, V domains shown)
VH: EVQLVESGGGLVQPGGSLRLSCAASGFTFTDFYMSWVRQAPGKGLEWVSVIRNKANAYTAGYNPSVKGRFTISRDNSKNTLYLQMNSLRAEDTAVYYCARLTYGFDYWGQGTLVTVSS
VL: DIVMTQTPLSLPVTPGEPASISCQSSKSLLHSTGKTYLNWYLQKPGQSPQLLIYWMSTRASGVPDRFSGSGSGTDFTLKISRVEAEDVGVYYCQQFLEYPFTFGQGTKVEIK
notes: Humanized variant of CL0020188
B4: CL0020188-4 (antibody, V domains shown)
VH: B3 VH with A24G, L45P, V48L, A57G
VL: B3 VL
notes: as for B3
B5: CL0020123-5 (antibody, V domains shown)
VH: QVQLVQSGAEVKKPGASVKVSCKASGFSIEDFYIHWVRQAPGQGLEWMGWIDPEQGESKYAPKFQGRATITADTSTSTAYMELSSLRSEDTAVYYCHADHGNYGSTMDYWGQGTLVTVSS
VL: B1 VL with N5T, L15V, T18R, D42K, H43A, G70D, I83F, G100Q, L104V
notes: Humanized variant of CL0020123
B6: CL0020123-7 (antibody, V domains shown)
VH: B5 VH with Q55N, A68V
VL: B1 VL with N5T, L15V, T18R, D42K, H43A, G70D, I83F, G100Q, L104V
notes: as for B5
B7: Reference antibody #3 (antibody, V domains shown)
VH: QVQLVQSGAEVKKPGASVKVSCKASGYAFSSQWMNWVRQAPGQRLEWIGRIYPGGGDTNYAGKFQGRVTITADTSASTAYMELSSLRSEDTAVYYCARLLRNQPGESYAMDYWGQGTLVTVSS
VL: DVVMTQSPDSLAVSLGERATINCRSSQSLVHSNRYTYLHWYQQKPGQSPKLLIYKVSNRFSGVPDRFSGSGSGTDFTLKISRVEAEDVGVYYCSQSTRVPYTFGQGTKLEIK
notes: also called AL2p-58 (WO 2019/028292)
B8: Reference antibody #1 (antibody, V domains shown)
VH: EVQLVQSGAEVKKPGESLKISCKGSGHSFTNYWIAWVRQMPGKGLEWMGIIYPGDSDTRYSPSFQGQVTISADKSISTAYLQWSSLKASDTAVYFCARQRTFYYDSSGYFDYWGQGTLVTVSS
VL: DIQMTQSPSSVSASVGDRVTITCRASQGISNWLAWYQQKPGKAPKLLIYAASSLQVGVPLRFSGSGSGTDFTLTISSLQPEDFATYYCQQADSFPRNFGQGTKLEIK
notes: also called 4C5 (WO 2018/195506)
B9: Reference antibody #2 (antibody, V domains shown)
VH: B8 VH with H27Y, N31S, V93M, G108D
VL: B8 VL with N31S, V56N, L60S, Y87F, N97T
notes: also called 6E7 (WO 2018/195506)

Target: T1, Mouse TREM2 peptide (aa 149-163) (mouse, UniProt Q99NH8 149-163, also: biotinylated)
T1 construct: range 149-163; also called truncated stalk peptide, mouse
T1 peptide (looked up): SFEGAQVEHSTSRNQ
Assay: ELISA, biotinylated stalk peptide on streptavidin plate, anti-human kappa-HRP detection
Protocol: (§1) TREM2 antibodies were evaluated for binding to human and mouse TREM2 stalk region peptides. […] Antibody binding to TREM2 stalk peptides was detected using standard sandwich ELISA. Briefly, a 96-well half-area ELISA plate was coated with streptavidin overnight at 4° C. The following day, biotinylated TREM2 stalk peptides diluted in 1% BSA/PBS were added to the plate and incubated for 1 hour. Antibodies diluted in 1% BSA/PBS were then added and incubated for 1 hour. Antibodies bound to peptide were detected with anti-human kappa-HRP secondary antibody (Bethyl Laboratories, Inc.) diluted in 1% BSA/PBS. Plates were assayed by reaction with a detection reagent (One-step TMB Ultra, Thermo) and measurement of absorbance at 450 nm (A450) by standard spectrophotometry instrumentation (BioTek®). Data are shown as normalized values (fold over background where background=isotype control).

**Q.** With Isotype control (antibody) as the molecule, how does the A450 fold over background (background = isotype control) read?
**A.** Its A450 fold over background (background = isotype control) is 1 fold.

**Q.** How did the “A450 fold over background (background = isotype control)” value (from here on “A450 fold over background”) turn out when B1 was run?
**A.** Its value is 0.9 fold.

**Q.** For B2, which “A450 fold over background” value is on record?
**A.** Its value is 0.9 fold.

Target: T2, Human TREM2 peptide (aa 149-163) (human, also: biotinylated)
T2 construct: also called truncated stalk peptide containing the ADAM10/17 cleavage site
T2 peptide: SFEDAHVEHSISRSL
Assay: as above
Protocol: as §1

**Q.** Which A450 fold over background (background = isotype control) does the source give for Isotype control (antibody) here?
**A.** The A450 fold over background (background = isotype control) was 1 fold.

**Q.** Which “A450 fold over background” value does the source give for B2 here?
**A.** Its value is 3 fold.

These molecules were tested against T3, recombinant cynomolgus TREM2 ECD (cynomolgus, UniProt A0A2K5UY34 49-204) (assay: SPR (Biacore 8K), antibody captured with Human Fab Capture Kit, recombinant TREM2 ECD injected, 1:1 fit).
T3 construct: extracellular domain; also called cyno TREM2
T3 sequence: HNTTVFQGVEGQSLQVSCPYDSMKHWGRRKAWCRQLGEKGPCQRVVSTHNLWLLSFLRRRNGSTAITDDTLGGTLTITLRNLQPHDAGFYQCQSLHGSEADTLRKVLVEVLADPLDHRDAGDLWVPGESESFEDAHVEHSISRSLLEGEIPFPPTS
Protocol: (§2) Surface plasmon resonance (Biacore™ 8K instrument) was used to measure anti-TREM2 antibody affinities for human and cynomolgus TREM2 ECD. Anti-TREM2 antibodies were captured using Human Fab Capture Kit (GE Healthcare Life Sciences, Catalog No. 28958325) on a Biacore Series S CM5 sensor chip (GE Healthcare Life Sciences, Catalog No. 29149604). Serial 3-fold dilutions of recombinant human or cynomolgus TREM2 were injected at a flow rate of 30 μL/min. Antibody binding was monitored for 300 seconds, followed by monitoring of antibody dissociation for 600+ seconds in HBS-EP+ running buffer (GE Healthcare Life Sciences, Catalog No. BR100669). The binding response was corrected by subtracting the RU value from a blank flow cell. A 1:1 Languir model of simultaneous fitting of kₒₙ, and koff was used for kinetics analysis.

**Q.** With B1 as the molecule, how does the Kd read?
**A.** The Kd was 5.7 nM.

**Q.** Which Kd does the source give for B2 here?
**A.** Its Kd is 2 nM.

What follows are molecules tested against T3, recombinant cynomolgus TREM2 ECD (assay: SPR (Biacore), cynomolgus TREM2).
Protocol: as §2
(§3) The affinity of anti-TREM2 antibodies to human TREM2 and cynomolgus TREM2 were measured by Biacore (described in Example 1). The potency of anti-TREM2 antibodies were measured in healthy human volunteer CSF samples (Innovative Research) and healthy cynomolgus monkey CSF samples (Worldwide Primates), by MSD assay. The potency of each antibody was determined by its EC50. Briefly, MSD GOLD 96-well small spot streptavidin plates (MSD, Cat. No. L45SA) coated with capture antibody (biotinylated goat anti-human TREM2, R&D Systems, Cat. No. BAF1828) was incubated with biofluid samples diluted 1:3 in Assay Buffer (25% (v/v) MSD Blocker A (MSD, Cat. No. R93BA-A), 75% (v/v) TBST) for one hour at room temperature. After rinsing the wells with TBST, sulfo-tagged anti-TREM2 antibody was added in a serial dilution (4× dilution over 11 points) to the wells of the plate and incubated for one hour at room temperature. The wells were washed with TBST, and MSD Read Buffer (MSD, Cat. No. R92TC-3) was added to the wells. Signal from the samples were measured using an MSD Meso Sector 5600 device. EC50 values for each antibody was determined by four-parameter variable slope non-linear regression. Reference antibodies #1 and #2 correspond to 4C5 and 6E7 described in WO 2018/195506. Reference antibody #3 corresponds to AL2p-58 described in WO 2019/028292. The variable regions of reference antibody #1 are represented by SEQ ID NOS:73 and 74.

**Q.** With B3 as the molecule, how does the Kd read?
**A.** The Kd was 2.8 nM.

**Q.** Which Kd does the source give for B4 here?
**A.** The Kd was 1.5 nM.

**Q.** B5 was tested. Which Kd did it give?
**A.** The Kd was 9.3 nM.

**Q.** For B6, which Kd is on record?
**A.** Its Kd is 9.4 nM.

**Q.** With B7 as the molecule, how does the Kd read?
**A.** The Kd was 9.2 nM.

**Q.** With B8 as the molecule, how does the Kd read?
**A.** The Kd was 14 nM.

**Q.** With B9 as the molecule, how does the Kd read?
**A.** Its Kd is 9.2 nM.

What follows are molecules tested against Mouse TREM2 peptide (aa 131-169) (mouse) (UniProt Q99NH8) (assay: ELISA, biotinylated stalk peptide on streptavidin plate, anti-human kappa-HRP detection).
Sequence of Mouse TREM2 peptide (aa 131-169) (mouse) (Q99NH8 131-169 limits assumed, form in doubt): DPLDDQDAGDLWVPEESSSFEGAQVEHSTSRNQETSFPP

**Q.** Isotype control (antibody) was tested. Which A450 fold over background (background = isotype control) did it give?
**A.** The A450 fold over background (background = isotype control) was 1 fold.

The molecules below were run against Human TREM2 peptide (aa 129-172) (human) in the same assay as above.
Sequence of Human TREM2 peptide (aa 129-172) (human) (peptide, as listed by the source): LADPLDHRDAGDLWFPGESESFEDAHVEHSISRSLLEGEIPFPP

**Q.** Isotype control (antibody) was tested. Which A450 fold over background (background = isotype control) did it give?
**A.** Its A450 fold over background (background = isotype control) is 1 fold.

What follows are molecules tested against T4, sTREM2 in cynomolgus CSF (cynomolgus monkey, UniProt A0A2K5UY34 49-187) (assay: MSD assay, sTREM2 from CSF captured by biotinylated goat anti-human TREM2, sulfo-tagged test antibody titrated).
T4 construct: domain: soluble TREM2 (sTREM2); also called soluble TREM2 in healthy cynomolgus monkey CSF
T4 sequence: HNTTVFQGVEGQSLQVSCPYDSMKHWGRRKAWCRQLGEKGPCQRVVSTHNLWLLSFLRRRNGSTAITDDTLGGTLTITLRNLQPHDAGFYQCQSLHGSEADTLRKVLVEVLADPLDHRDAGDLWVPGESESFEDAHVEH
Protocol: as §3, with “74. The variable regions of reference antibody #2 are represented by SEQ ID NOS:75 and 76. The variable regions of reference antibody #3 are represented by SEQ ID NOS:77 and 78.” for “74.”

**Q.** For B3, which EC50 is on record?
**A.** The EC50 was 0.72 nM.

**Q.** How did the EC50 turn out when B4 was run?
**A.** The EC50 was 0.28 nM.

**Q.** B5 was tested. Which EC50 did it give?
**A.** The EC50 was 49.4 nM.

**Q.** How did the EC50 turn out when B6 was run?
**A.** The EC50 was 16.9 nM.

**Q.** For B7, which EC50 is on record?
**A.** The EC50 was 33.7 nM.

**Q.** With B8 as the molecule, how does the EC50 read?
**A.** Its EC50 is 81.6 nM.

**Q.** For B9, which EC50 is on record?
**A.** Its EC50 is 6.5 nM.
